# Reference: patent US20230340159A1 (published 2023)
# Residue numbers refer to the chain shown, from its start.
# T1: murine HER2 (murine, UniProt P70424 23-1256)
# T1 chain: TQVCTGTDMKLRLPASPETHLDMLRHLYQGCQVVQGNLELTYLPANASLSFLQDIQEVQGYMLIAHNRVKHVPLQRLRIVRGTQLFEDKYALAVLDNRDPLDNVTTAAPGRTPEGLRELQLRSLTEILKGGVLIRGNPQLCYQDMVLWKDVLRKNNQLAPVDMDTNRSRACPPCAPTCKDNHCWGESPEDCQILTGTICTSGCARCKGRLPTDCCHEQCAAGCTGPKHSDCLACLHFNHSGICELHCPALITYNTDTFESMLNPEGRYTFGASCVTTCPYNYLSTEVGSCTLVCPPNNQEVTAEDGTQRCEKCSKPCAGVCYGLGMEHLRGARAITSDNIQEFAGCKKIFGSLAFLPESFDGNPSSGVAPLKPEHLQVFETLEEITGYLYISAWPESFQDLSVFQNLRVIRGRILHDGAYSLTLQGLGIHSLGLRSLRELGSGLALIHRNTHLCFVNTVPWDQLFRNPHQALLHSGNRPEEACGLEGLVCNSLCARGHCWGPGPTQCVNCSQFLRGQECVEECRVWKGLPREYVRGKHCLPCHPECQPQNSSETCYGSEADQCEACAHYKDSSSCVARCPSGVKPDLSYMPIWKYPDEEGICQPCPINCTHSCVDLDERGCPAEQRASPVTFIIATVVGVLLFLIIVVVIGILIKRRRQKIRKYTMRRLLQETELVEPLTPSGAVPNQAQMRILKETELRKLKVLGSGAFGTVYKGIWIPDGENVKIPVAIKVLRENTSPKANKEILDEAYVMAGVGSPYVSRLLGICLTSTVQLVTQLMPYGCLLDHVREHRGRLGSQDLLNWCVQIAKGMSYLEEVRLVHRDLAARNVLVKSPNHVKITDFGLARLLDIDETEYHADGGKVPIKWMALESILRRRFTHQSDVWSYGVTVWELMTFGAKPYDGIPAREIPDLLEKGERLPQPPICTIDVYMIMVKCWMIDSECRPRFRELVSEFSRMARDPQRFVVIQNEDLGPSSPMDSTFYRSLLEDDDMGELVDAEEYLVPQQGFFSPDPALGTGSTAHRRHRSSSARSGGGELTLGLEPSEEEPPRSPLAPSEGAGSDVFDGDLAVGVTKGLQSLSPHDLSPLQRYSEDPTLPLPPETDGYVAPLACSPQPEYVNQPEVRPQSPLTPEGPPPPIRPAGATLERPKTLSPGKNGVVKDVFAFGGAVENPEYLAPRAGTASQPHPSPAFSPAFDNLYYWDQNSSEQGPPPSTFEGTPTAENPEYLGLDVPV
# B1: mouse CA9 (enzyme)
# chain: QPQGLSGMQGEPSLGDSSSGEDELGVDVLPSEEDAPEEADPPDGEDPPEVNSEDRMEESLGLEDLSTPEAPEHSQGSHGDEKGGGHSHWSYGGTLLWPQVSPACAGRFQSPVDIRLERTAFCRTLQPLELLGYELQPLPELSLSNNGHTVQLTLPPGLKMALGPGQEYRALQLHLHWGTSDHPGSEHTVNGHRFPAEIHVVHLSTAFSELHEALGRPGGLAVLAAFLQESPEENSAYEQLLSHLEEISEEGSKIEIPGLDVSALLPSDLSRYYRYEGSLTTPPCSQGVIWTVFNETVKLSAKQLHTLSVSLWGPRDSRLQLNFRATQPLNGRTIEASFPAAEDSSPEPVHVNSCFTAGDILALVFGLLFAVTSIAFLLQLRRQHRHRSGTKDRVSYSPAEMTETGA
# B2: 1159 Pro1045 (antibody, V domains shown)
# VH: QVQLQESGGGLVQAGGSLRLSCATSGRTFSSLAMGWFRQAPGKERELVAGISWSGSTTYYADSVKGRFAISRDNAKNTVYLQMNSLKPEDTAVYYCAARTSSIATIGREYDYWGQGTQVTVSS
# B3: h1159 Pro1062 (antibody, V domains shown)
# VH: B2 VH with Q5L, A14P, A75S, V79L, K87R, P88A, Q118L
# B4: 1055 Pro1036 (protein)
# chain: QVQLQESGGGLVQPGGSLRLTCEVSGRAISSYAISWFRQAPGEEREFVAAINWSGTHTNYADSVKGRFTISRDNVKNTVYLQMNSLKPEDTATYFCSRGWSVFDPDYRGQGTQVTVSS
# B5: 1059 Pro1038 (protein)
# chain: B4 chain with E23A, V24A, N59D, V75A, T93V
# B6: 1058 Pro1037 (protein)
# chain: B4 chain with P14A, E23A, V24A, N59D, N77R
# B7: 1139 Pro1043 (protein)
# chain: QVQLQESGGGLVQPGGSLRLSCAASGFTFDDYAMSWIRQAPGKEMEWVSGINWSGTHTRYADSVKGRFTISRDNAKNTLDLQMNSLISEDTAVYYCARGFAADSRSTRGQGTQVTVSS
# B8: h1139 Pro1060 (protein)
# chain: B7 chain with Q5V, L11V, Q13R, T78S, D80Y, I87R, S88A, V93L, Q113L
# B9: h1156 Pro1061 (antibody, V domains shown)
# VH: QVQLLESGGGLVQPGGSLRLSCAASRNIGSNYAVGWFRQAPGKEREPVAALRWTGSIIGYDDSLRGRFTISKDNSKNTLYLQMNSLKPEDTAVYYCAARILDRSSYDYWGQGTLVTVSS
# B10: 1156 Pro1044 (antibody, V domains shown)
# VH: B9 VH with L5Q, P14A, R19K, L20V, N74D, S75A, L79V, A92G, L114Q
# B11: 1091 Pro1039 (protein)
# chain: QVQLQESGGGLVQPGGSLRLSCAASGFTFDDYAMSWVRQAPGKGLEWVSSINWSGTHTDYADSVKGRFTISRDNAKNTLYLQMNSLKSEDSAVYYCVKGWRLTGGYYDSVQGQGTQVTVSS
# B12: 1092 Pro1040 (protein)
# chain: B11 chain with P14A, G16A, M34L
# B13: 1097 Pro1041 (protein)
# chain: B11 chain with T28I, S35T, L102H, G104D, G105N, D108A, S109G
# B14: h1162 Pro1064 (antibody, V domains shown)
# VH: QVQLLESGGGLVQPGGSLRLSCAASGRPFSGNAMGWFRQAPGKEREFVAAISWSGDSTYYADSVKGRFTISRDNSKNTLYLQMNSLRAEDTAVYYCAATRSFYSRTYYTRPSDYNYWGPGTLVTVSS
# B15: 1162 Pro1047 (antibody, V domains shown)
# VH: B14 VH with L5Q, P14A, S75D, K76E, L79A, R87K, A88P, L122Q
# B16: 1160 Pro1046 (antibody, V domains shown)
# VH: QVQLQESGGGLVQAGGSLRLSCAASGRTFSNERLGWFRQAPGKERELVAAIRWSGVIIGYADSVRGRFTISRDNAKSTVYLQMNSLRPEDTAVYFCAADRGVYGTWDYWGQGTQVTVSS
# B17: 1121 Pro1042 (protein)
# chain: QVQLQESGGGLVQAGGSLRLSCAASGFIFSDYAMTWVRQAPGKGLEWVSSINWSGTHTNYADSVKGRFTISRDNAKKTLYLQMNSLKSEDTAVYYCARGWMVVPDSTRGQGTQVTVSS
# B18: h456 Pro509 (antibody, V domains shown)
# VH: QVQLVESGGGLVQPGGSLRLSCAASGSALIINAMGWYRQAPGKQRELVATVTRSGRTNYADSVKGRFTISRDNSKNTLYLQMNSLRAEDTAVYYCNVALWIADGEYDYWGQGTLVTVSS
# Target: 456
# Sequence (Q8VHB5 32-437): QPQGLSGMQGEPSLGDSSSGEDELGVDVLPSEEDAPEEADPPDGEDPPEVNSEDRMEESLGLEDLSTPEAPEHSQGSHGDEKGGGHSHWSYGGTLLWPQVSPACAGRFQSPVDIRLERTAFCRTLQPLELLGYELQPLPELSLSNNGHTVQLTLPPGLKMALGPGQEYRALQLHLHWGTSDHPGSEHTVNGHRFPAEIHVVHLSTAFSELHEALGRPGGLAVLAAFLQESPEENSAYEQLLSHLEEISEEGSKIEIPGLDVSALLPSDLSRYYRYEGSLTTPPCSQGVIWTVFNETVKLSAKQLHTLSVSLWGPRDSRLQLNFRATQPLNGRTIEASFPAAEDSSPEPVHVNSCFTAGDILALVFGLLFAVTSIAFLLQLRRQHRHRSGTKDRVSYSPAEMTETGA
row,Kd,Binder
1,8.2 nM,B1

# Target: Human Her2 protein (human, UniProt P04626 23-652)
row,Kd,Binder
1,18 nM,B2
2,106 nM,B3
3,53.1 nM,B4
4,23 nM,B5
5,8.6 nM,B6
6,5.6 nM,B7
7,7.3 nM,B8
8,< 0.01 nM,B9
9,6.6 nM,B10
10,6 nM,B11
11,3.1 nM,B12
12,2.5 nM,B13
13,22.9 nM,B14
14,21.4 nM,B15
15,56.7 nM,B16
16,3.8 nM,B17

# Target: T1, murine HER2
row,Kd,Binder
1,80 nM,B2
2,19100 nM,B3
3,122 nM,B14
4,54 nM,B15

# Target: mouse CA9 protein (mouse, UniProt Q8VHB5 32-437)
# Sequence (Q8VHB5 32-437): as above
row,Kd,Binder
1,1.4 nM,B18
